Measurements taken from PMC11266516.

Biological target: Fc gamma receptors on mouse peritoneal macrophages (mouse (endogenous in peritoneal macrophages))
Experiment: flow cytometry on cells; ImageStream X imaging flow cytometry; peritoneal wash cells (2 x 10^6) in 100 uL 1% BSA PBS stained with 0.125 ug mouse IgG-DyLight 405 and anti-CD11b-FITC, 30 min, room temperature; no Fc block

**Q.** How did the percent of CD11b+ macrophages that bound exogenous IgG turn out when “mouse IgG-DyLight 405 (fluorescently conjugated mouse monomeric IgG) (antibody)” was run?
**A.** 98.6%
